This assay concerns the target T1, human integrin avb8 (human).
T1 chain 1: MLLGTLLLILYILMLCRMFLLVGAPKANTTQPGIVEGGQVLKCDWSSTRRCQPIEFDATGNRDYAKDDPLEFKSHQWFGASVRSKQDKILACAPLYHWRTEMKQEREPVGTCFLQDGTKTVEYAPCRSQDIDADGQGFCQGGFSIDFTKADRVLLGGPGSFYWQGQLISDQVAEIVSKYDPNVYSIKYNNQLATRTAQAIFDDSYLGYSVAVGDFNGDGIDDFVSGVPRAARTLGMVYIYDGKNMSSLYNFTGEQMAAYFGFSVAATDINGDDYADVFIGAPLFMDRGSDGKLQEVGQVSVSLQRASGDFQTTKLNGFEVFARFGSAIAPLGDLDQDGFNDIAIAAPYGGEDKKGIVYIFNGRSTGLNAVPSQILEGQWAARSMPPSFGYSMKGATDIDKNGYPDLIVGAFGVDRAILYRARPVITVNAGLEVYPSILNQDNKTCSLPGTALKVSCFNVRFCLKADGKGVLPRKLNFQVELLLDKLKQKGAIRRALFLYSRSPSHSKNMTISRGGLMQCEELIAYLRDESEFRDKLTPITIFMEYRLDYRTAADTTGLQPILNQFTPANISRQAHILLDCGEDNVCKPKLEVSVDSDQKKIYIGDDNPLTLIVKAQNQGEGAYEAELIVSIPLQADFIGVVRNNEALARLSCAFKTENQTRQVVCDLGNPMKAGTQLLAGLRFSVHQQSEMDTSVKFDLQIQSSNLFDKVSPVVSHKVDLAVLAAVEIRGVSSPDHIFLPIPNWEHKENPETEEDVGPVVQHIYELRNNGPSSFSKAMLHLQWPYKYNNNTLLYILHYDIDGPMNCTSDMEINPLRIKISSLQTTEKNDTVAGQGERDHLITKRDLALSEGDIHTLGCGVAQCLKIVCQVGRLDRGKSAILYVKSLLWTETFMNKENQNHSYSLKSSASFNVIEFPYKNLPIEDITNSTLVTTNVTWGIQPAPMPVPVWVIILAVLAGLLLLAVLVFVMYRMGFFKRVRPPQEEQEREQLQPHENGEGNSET
T1 chain 2: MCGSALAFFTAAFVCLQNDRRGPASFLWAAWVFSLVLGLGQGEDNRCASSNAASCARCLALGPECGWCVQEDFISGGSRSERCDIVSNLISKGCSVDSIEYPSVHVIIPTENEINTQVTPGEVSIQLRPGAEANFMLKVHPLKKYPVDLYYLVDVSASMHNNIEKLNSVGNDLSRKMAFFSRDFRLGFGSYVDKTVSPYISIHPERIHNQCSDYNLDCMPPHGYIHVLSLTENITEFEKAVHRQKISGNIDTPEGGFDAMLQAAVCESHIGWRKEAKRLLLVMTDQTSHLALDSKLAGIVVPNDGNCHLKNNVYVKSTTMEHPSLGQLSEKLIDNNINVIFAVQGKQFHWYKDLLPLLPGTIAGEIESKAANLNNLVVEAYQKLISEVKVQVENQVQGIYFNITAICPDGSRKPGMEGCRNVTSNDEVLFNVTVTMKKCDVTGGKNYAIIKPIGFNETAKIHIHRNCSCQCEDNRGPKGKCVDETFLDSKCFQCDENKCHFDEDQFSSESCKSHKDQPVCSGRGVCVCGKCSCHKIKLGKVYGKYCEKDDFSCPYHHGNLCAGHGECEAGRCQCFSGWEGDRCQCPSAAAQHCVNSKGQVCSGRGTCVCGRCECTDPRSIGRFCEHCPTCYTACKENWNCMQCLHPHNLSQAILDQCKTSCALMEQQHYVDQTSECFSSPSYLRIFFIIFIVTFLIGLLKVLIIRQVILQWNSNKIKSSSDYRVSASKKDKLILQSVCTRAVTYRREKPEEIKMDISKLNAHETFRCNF
Description: FACS U251 cells.

“And” between values parts separate entries of the source, which are not always exact repeats. Identical values can stand only once.

Broadly, the EC50 is the concentration at which the effect is half-maximal. Read a high EC50 as weaker potency.

B1: ADWA11 2.4 IgG (antibody)
chain 1: EVQLVESGGGLVQPGGSLRLSCAASGFNIKDYYMNWVRQAPGKGLEWVGWIDPDQGNTIYEPKFQGRFTISADTSKNSAYLQMNSLRAEDTAVYYCARRLLMDYWGQGTLVTVSSASTKGPSVFPLAPSSKSTSGGTAALGCLVKDYFPEPVTVSWNSGALTSGVHTFPAVLQSSGLYSLSSVVTVPSSSLGTQTYICNVNHKPSNTKVDKKVEPKSCDKTHTCPPCPAPEAAGAPSVFLFPPKPKDTLMISRTPEVTCVVVDVSHEDPEVKFNWYVDGVEVHNAKTKPREEQYNSTYRVVSVLTVLHQDWLNGKEYKCKVSNKALPAPIEKTISKAKGQPREPQVYTLPPSREEMTKNQVSLTCLVKGFYPSDIAVEWESNGQPENNYKTTPPVLDSDGSFFLYSKLTVDKSRWQQGNVFSCSVMHEALHNHYTQKSLSLSPGK
chain 2: DIQMTQSPSSLSASVGDRVTITCRSTKSLSHFNGNTYLFWYQQKPGKAPKRLIYYMSSLASGVPSRFSGSGSGTDFTLTISSLQPEDFATYYCQQSLEYPFTFGGGTKVEIKRTVAAPSVFIFPPSDEQLKSGTASVVCLLNNFYPREAKVQWKVDNALQSGNSQESVTEQDSKDSTYSLSSTLTLSKADYEKHKVYACEVTHQGLSSPVTKSFNRGEC
For B1, the EC50 was 0.256 nM and 0.126 nM.
